For this data set, the system named is NC(=O)c1ccc[n+]([C@@H]2O[C@H](COP(=O)([O-])OP(=O)(O)OC[C@H]3O[C@@H](n4cnc5c(N)ncnc54)[C@H](O)[C@@H]3O)[C@@H](O)[C@H]2O)c1. Description: Nucleotide cofactor specificity of AmEPV ligase in nick ligation. To be noted: other: from double-reciprocal plot, sub-saturating enzyme; pH 7.5; 22.0 °C. The format is biochemical, Amsacta moorei entomopoxvirus. The protocol: Reaction mixtures (20 μl) containing 50 mM Tris-HCl (pH 7.5), 10 mM (NH4)2SO4, 5 mM DTT, 5 mM MgCl2, 1 pmol of ^32P-labeled nicked DNA, 32 ng of AmEPV ligase, and 50 μM of the indicated nucleotide were incubated for 30 min at 22° C. A control reaction contained no added nucleotide cofactor (none). The reaction products were resolved by polyacrylamide gel electrophoresis. An autoradiogram of the gel is shown.
A low level of nick ligation could be detected in the absence of added nucleotide (FIG. 6). Cofactor-independent ligation was attributed to pre-adenylated ligase in the enzyme preparation. […] Inclusion of NAD^+ in the reaction mixture stimulated nick ligation such that ˜90% of the input substrate molecules were sealed (FIG. 6). […] Indeed, none of the standard rNTPs or dNTPs were able to satisfy the requirement of AmEPV ligase for a high energy cofactor (FIG. 6). […] A Km of 9 μM NAD^+ was calculated from a double-reciprocal plot of the data.

Regarding “AmEPV ligase (Betaentomopoxvirus amoorei)”, the Km (usually the substrate concentration at which the rate is half of its maximum) amounted to 9 µM.

Source of the values: patent US6787341B2, “Pharmacological targeting of bacterial DNA ligase for treatment and prevention of bacterial infections” (priority 2001, dated 2004).
